Reference: article PMC11883276
Each block holds one substance with its values, some of them ahead of it.

Assays:
[1] = target: full-length wild-type human N-cadherin on A431-D cells (A431-D^N-cad; A431-D^N-cad+FGFR) (human) (UniProt P19022)
[2] = target: endogenous human E-cadherin on MCF-7 cells (human) (UniProt P12830)
[3] = target: full-length human E-cadherin fused to GFP at the C-terminus, on A431-D cells (A431-D^E-cad) (human) (UniProt P12830)
[4] = target: full-length wild-type human N-cadherin on A431-D cells (A431-D^N-cad; A431-D^N-cad+FGFR) (human) (UniProt P19022); remark: listed apart in the source
[5] = target: Fc-tagged extracellular domain of E-cadherin (E-cad-Fc) (UniProt P12830); assay: density of cells attached to cadherin-coated substrates; A431-D^E-cad or A431-D^N-cad+FGFR cells counted 90 min after seeding in 0.5% serum with the fibronectin-blocking antibody 16G3 on E-cad-Fc or N-cad-Fc substrates; further samples treated with Gefitinib, BGJ398, DECMA-1 or anti-N-cad antibody
[6] = target: Fc-tagged extracellular domain of N-cadherin (N-cad-Fc) (UniProt P19022); assay: as above
[7] = target: Fc-tagged extracellular domain of E-cadherin (E-cad-Fc) (UniProt P12830)
[8] = target: Fc-tagged extracellular domain of N-cadherin (N-cad-Fc) (UniProt P19022)
[9] = target: Fc-tagged extracellular domain of N-cadherin (N-cad-Fc) (UniProt P19022); assay: capillary shear flow cell adhesion assay; cadherin-Fc (50 µg/ml) physisorbed on the inner walls of glass capillaries, blocked with BSA; A431-D^E-cad or A431-D^N-cad cells bound 20 min under static conditions, room temperature, low-serum medium with 2 mM Ca2+, then flow increased every 30 s; WSS50 from fits to Eqn 1
[10] = target: Fc-tagged extracellular domain of N-cadherin (N-cad-Fc) (UniProt P19022); assay: capillary shear flow cell adhesion assay; as a1, but with A431-D^N-cad+FGFR cells (N-cad co-expressed with FGFR1) on N-cad-Fc-coated capillaries
[11] = target: Fc-tagged extracellular domain of E-cadherin (E-cad-Fc) (UniProt P12830); remark: listed apart in the source
[12] = target: Fc-tagged extracellular domain of N-cadherin (N-cad-Fc) (UniProt P19022); remark: listed apart in the source
[13] = target: Fc-tagged extracellular domain of E-cadherin (E-cad-Fc) (UniProt P12830); remark: listed apart in the source
[14] = target: Fc-tagged extracellular domain of N-cadherin (N-cad-Fc) (UniProt P19022); remark: listed apart in the source

- relative change of cell stiffness during bead twisting (MTC), E-cad beads on A431-D^N-cad cells (no FGFR) [1]: -1%
- relative change of cell stiffness during bead twisting (MTC), E-cad beads on MCF-7 cells [2]: 17%
- relative change of cell stiffness during bead twisting (MTC), E-cad beads on A431-D^E-cad cells [3]: 16%
Substance: Fc-tagged extracellular domain of E-cadherin (E-cad-Fc) (from UniProt P12830 155-709) (Fc fusion)

- relative change of cell stiffness during bead twisting (MTC), N-cad beads on A431-D^N-cad cells (no FGFR) [1]: 4%
- relative change of cell stiffness during bead twisting (MTC), N-cad beads on A431-D^N-cad+FGFR cells [4]: 17%
- relative change of cell stiffness during bead twisting (MTC), N-cad beads on A431-D^E-cad cells [3]: -3.6%
Substance: Fc-tagged extracellular domain of N-cadherin (N-cad-Fc) (from UniProt P19022 160-724) (Fc fusion)

- density of cells retained on the substrate [5]: 25 cells/mm^2
- density of cells retained on the substrate [6]: 19 cells/mm^2
- RMS traction stress of A431-D^E-cad cells on E-cad-Fc-coated 40 kPa gels, 0.5% serum [7]: 160 Pa
- RMS traction stress of A431-D^E-cad cells on N-cad-Fc-coated 40 kPa gels, 0.5% serum [8]: 82 Pa
Substance: full-length human E-cadherin fused to GFP at the C-terminus, on A431-D cells (A431-D^E-cad) (from UniProt P12830 23-882) (receptor)

- WSS50 (wall shear stress at which 50% of the cells are retained) [9]: 15 dynes/cm^2
- WSS50 (wall shear stress at which 50% of the cells are retained) [10]: 17 dynes/cm^2
- RMS traction stress of A431D^N-cad cells (no FGFR) on E-cad-Fc-coated 40 kPa gels [11]: 88 Pa
- RMS traction stress of A431D^N-cad cells (no FGFR) on N-cad-Fc-coated 40 kPa gels [12]: 85 Pa
- RMS traction stress of A431-D^N-cad+FGFR cells on E-cad-Fc-coated 40 kPa gels, 0.5% serum [13]: 100 Pa
- RMS traction stress of A431-D^N-cad+FGFR cells on N-cad-Fc-coated 40 kPa gels, 0.5% serum [14]: 176 Pa
- density of cells attached to the substrate [5]: 15 cells/mm²
- density of cells attached to the substrate [6]: 22 cells/mm²
Substance: full-length wild-type human N-cadherin on A431-D cells (A431-D^N-cad; A431-D^N-cad+FGFR) (from UniProt P19022 26-906) (receptor)
